From publication PMC7987023 (bioRxiv, 2021)

Molecular target: SARS-CoV-2 6P stabilized S trimer (SARS-CoV-2, Wuhan-Hu-1 reference, UniProt P0DTC2, stabilised)
Experiment: cryo-EM structure

B1: C051 Fab (Fab, V domains shown)
VH: EVQLVESGGGLIQAGGSLRLSCAASGFGVRNNYMSWVRQAPGKGLEWVSVIYSGGTTYYADSVKGRFTISRDNSKNTVFLQMNSLRAEDTAVYYCAREGDVEGFSDLWSGYSRDRYYFDYWGQGTLVTVSS
VL: QSVLTQPASVSGSPGQSITFSCTGTSSDVGGYNYVSWYQQYPGKAPKLLIYDVTNRPSGVSDRFSGSKSGNTASLTISGLQAEDEADYYCSSFTSSNTRVFGTGTKVTVL
binding result: binds
